Results taken from publication PMC6048692 (Chemical Science, 2018).

Tests used:
[1] = molecular target: the molecule itself; experiment: MoTag2 comet formation, MT plus end tracking
SEC = molecular target: the molecule itself; experiment: SEC

B1: p53 tetramerization domain (TD), p53 324-356, fused with MoTag2 (domain or fragment)
chain: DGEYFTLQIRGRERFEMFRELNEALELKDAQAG
stoichiometry N [1]: 4

B2: DsRed fused to MoTag2 (natural protein)
chain: MRSSKNVIKEFMRFKVRMEGTVNGHEFEIEGEGEGRPYEGHNTVKLKVTKGGPLPFAWDILSPQFQYGSKVYVKHPADIPDYKKLSFPEGFKWERVMNFEDGGVVTVTQDSSLQDGCFIYKVKFIGVNFPSDGPVMQKKTMGWEASTERLYPRDGVLKGEIHKALKLKDGGHYLVEFKSIYMAKKPVQLPGYYYVDSKLDITSHNEDYTIVEQYERTEGRHHLFL
stoichiometry N (SEC): 4
